Measured values from article PMC9289880 (Journal of Medicinal Chemistry, 2022).
Bridges are numbered along the chain shown (N, C = ends).

Molecular target: KRAS^G12D (GDP) (UniProt P01116 1-189, G12D)
Assay: cell-based or functional assay

## Ac-RRCPLYISYDPVCRR-NH2 (disulfide 3-13) [peptide 2 (KRpep-2)]
  KRAS^G12D SOS GNE IC50 (TR-FRET, SOS-catalysed Bodipy-GDP/GTP exchange): 54 nM
